Data reported in FireProtDB.

Details: whole UniProt chain shown
[1] = Bacillus licheniformis (strain ATCC 14580 / DSM 13 / JCM 2505 / CCUG 7422 / NBRC 12200 / NCIMB 9375 / NCTC 10341 / NRRL NRS-1264 / Gibson 46…, pH 7, Thermal, CD, Hepes 10 mM, reversible: Yes
[2] = Bos taurus, pH 2, Thermal, CD, KCl-HCl 0.1 M, reversible: yes
[3] = Bos taurus, pH 2, Thermal, CD, Sodium phosphate 0.2 M, reversible: yes
[4] = Bos taurus, pH 2, Thermal, DSC, KCl-HCl 0.1 M, reversible: yes
[5] = Bos taurus, pH 6.2, 25 °C, 2-Propanol, CD, Piperazine Unknown, NaCl 30 mM, transition: 2, reversible: Yes
[6] = Bos taurus, pH 5.3, 5 °C, GdnHCl, CD, Sodium acetate 0.02 M, reversible: yes
[7] = Bacillus caldolyticus, pH 7, Thermal, CD, sodium cacodylate 100 mM, NaCl 2 M, reversible: yes
[8] = Bacillus caldolyticus, pH 7, Thermal, CD, sodium cacodylate 100 mM, reversible: yes

B1: Cytidine deaminase wild type, P19079 (protein)
chain: MNRQELITEALKARDMAYAPYSKFQVGAALLTKDGKVYRGCNIENAAYSMCNCAERTALFKAVSEGDTEFQMLAVAADTPGPVSPCGACRQVISELCTKDVIVVLTNLQGQIKEMTVEELLPGAFSSEDLHDERKL
Bacillus subtilis (strain 168), pH 7, 25 °C, GdnHCl, CD, potassium phosphate 20 mM, reversible: no
  unfolding free energy: 2.5 kcal/mol

B2: FMN-dependent NADPH-azoreductase wild type, O07529 (protein)
chain: MNMLVINGTPRKHGRTRIAASYIAALYHTDLIDLSEFVLPVFNGEAEQSELLKVQELKQRVTKADAIVLLSPEYHSGMSGALKNALDFLSSEQFKYKPVALLAVAGGGKGGINALNNMRTVMRGVYANVIPKQLVLDPVHIDVENATVAENIKESIKELVEELSMFAKAGNPGV
Bacillus subtilis (strain 168), pH 7.5, Thermal, CD, Tris-HCl 100 mM, reversible: No
  Tm: 86.5 °C

B3: Protein GrpE wild type, Q65H53 (protein)
chain: MAEEKQNEELNEQEELNETEAETAEAEQTAAEADAPAEETQTEMLEKQLKELQERLEEKENKLLRVQADFENYKRRARLDLEAAEKYRSQRIISDLLPALDNFERALQIDPDNEQTKSLLQGMEMVHRQILEALKNEGVEQIPSVGEQFDPNMHQAVMQVEDEAYESNAVVEELQKGYKLKDRVIRPSMVKVNQ
[1]
  Tm: 52 °C
  unfolding enthalpy (van 't Hoff): 99.9 kcal/mol

B4: Beta-lactoglobulin wild type, P02754 (protein)
chain: MKCLLLALALTCGAQALIVTQTMKGLDIQKVAGTWYSLAMAASDISLLDAQSAPLRVYVEELKPTPEGDLEILLQKWENGECAQKKIIAEKTKIPAVFKIDALNENKVLVLDTDYKKYLLFCMENSAEPEQSLACQCLVRTPEVDDEALEKFDKALKALPMHIRLSFNPTQLEEQCHI
[2]
  Tm: 78 °C
  heat capacity change of unfolding: 1.33 kcal/mol/K
  unfolding enthalpy (van 't Hoff): 74.6 kcal/mol
[3]
  Tm: 91 °C
  heat capacity change of unfolding: 1.35 kcal/mol/K
  unfolding enthalpy (van 't Hoff): 88.8 kcal/mol
[4]
  Tm: 77.8 °C
  heat capacity change of unfolding: 1.33 kcal/mol/K
  unfolding enthalpy (calorimetric): 74.7 kcal/mol
Bos taurus, pH 3, Thermal, DSC, phosphate 20 mM, reversible: yes
  Tm: 77 °C
[5]
  denaturant m value: 0.9 kcal/mol/M
  denaturant midpoint (higher = more stable): 4 M
  unfolding free energy: 3.8 kcal/mol
Bos taurus, pH 6.85, 25 °C, Urea, CD, Phosphate 0.01 M, chloride 0.2 M
  unfolding free energy: 6.99 kcal/mol
Bos taurus, pH 6.85, 25 °C, Urea, CD, Phosphate 0.01 M, citrate 0.2 M
  unfolding free energy: 9.79 kcal/mol
Bos taurus, pH 6.85, 25 °C, Urea, CD, Phosphate 0.01 M, phosphate 0.2 M
  unfolding free energy: 9.18 kcal/mol
Bos taurus, pH 6.85, 25 °C, Urea, CD, Phosphate 0.01 M, sulfate 0.2 M
  unfolding free energy: 8.8 kcal/mol
Bos taurus, pH 6.85, 25 °C, Urea, CD, Phosphate 0.01 M, tartrate 0.2 M
  unfolding free energy: 7.58 kcal/mol
Bos taurus, pH 7.1, 30 °C, GdnHCl, CD, phosphate 0.11 M, NaCl 0.04 M
  unfolding free energy: 11.2 kcal/mol

B5: Serine protease 1 wild type, P00760 (protein)
chain: MKTFIFLALLGAAVAFPVDDDDKIVGGYTCGANTVPYQVSLNSGYHFCGGSLINSQWVVSAAHCYKSGIQVRLGEDNINVVEGNEQFISASKSIVHPSYNSNTLNNDIMLIKLKSAASLNSRVASISLPTSCASAGTQCLISGWGNTKSSGTSYPDVLKCLKAPILSDSSCKSAYPGQITSNMFCAGYLEGGKDSCQGDSGGPVVCSGKLQGIVSWGSGCAQKNKPGVYTKVCNYVSWIKQTIASN
Bos taurus, pH 5.8, 25 °C, GdnHCl, Fluorescence, MES 0.1 M
  unfolding free energy: 10.9 kcal/mol

B6: Acyl-CoA-binding protein wild type, P07107 (protein)
chain: MSQAEFDKAAEEVKHLKTKPADEEMLFIYSHYKQATVGDINTERPGMLDFKGKAKWDAWNELKGTSKEDAMKAYIDKVEELKKKYGI
[6]
  denaturant m value: 2.7 kcal/mol/M
  denaturant midpoint (higher = more stable): 2.36 M
  unfolding free energy: 6.1 kcal/mol

B7: Cytidine deaminase wild type, Q9R2S1 (protein)
chain: MEIEQLIVEAKKARELAYVPYSKFPVGAALLTKGGSVYRGCNIENAAYSVCNCAERTALFKAYSEGEKEFTALAVIADTPRPVPPCGACRQVIAELCHGDMKVILANLKGDVKVMTVSELLPEAFSAEDLHA
Bacillus caldolyticus, pH 7, 25 °C, GdnHCl, CD, potassium phosphate 20 mM, reversible: no
  unfolding free energy: 4.3 kcal/mol

B8: Cold shock protein CspB wild type, P41016 (protein)
chain: MQRGKVKWFNNEKGYGFIEVEGGSDVFVHFTAIQGEGFKTLEEGQEVSFEIVQGNRGPQAANVVKL
Bacillus caldolyticus, pH 7, 60 °C, Thermal, CD, sodium cacodylate 100 mM, NaCl 2 M, reversible: yes
  unfolding free energy: 3.37 kcal/mol
Bacillus caldolyticus, pH 7, 60 °C, Thermal, CD, sodium cacodylate 100 mM, reversible: yes
  unfolding free energy: 2.44 kcal/mol
[7]
  Tm: 84.4 °C
  unfolding enthalpy (van 't Hoff): 61.4 kcal/mol
[8]
  Tm: 76.9 °C
  unfolding enthalpy (van 't Hoff): 58.6 kcal/mol

B9: 3-isopropylmalate dehydrogenase wild type, P05645 (protein)
chain: MKKRIALLPGDGIGPEVLESATDVLKSVAERFNHEFEFEYGLIGGAAIDEHHNPLPEETVAACKNADAILLGAVGGPKWDQNPSELRPEKGLLSIRKQLDLFANLRPVKVFESLSDASPLKKEYIDNVDFVIVRELTGGLYFGQPSKRYVNTEGEQEAVDTLFYKRTEIERVIREGFKMAAARKGKVTSVDKANVLESSRLWREVAEDVAQEFPDVKLEHMLVDNAAMQLIYAPNQFDVVVTENMFGDILSDEASMLTGSLGMLPSASLSSSGLHLFEPVHGSAPDIAGKGMANPFAAILSAAMLLRTSFGLEEEAKAVEDAVNKVLASGKRTRDLARSEEFSSTQAITEEVKAAIMSENTISNV
Bacillus subtilis (strain 168), pH 7.6, Thermal, CD, Potassium phosphate 20 mM, reversible: yes
  Tm: 56 °C
